B1: TPR t1 (parent)
chain: GACCAAUCUGCCCUCAGAGCUCGAGAACAUCUUCGGAUGCAGAGGAGGCAGGCUUCGGUGGCGCGAUAGCGCCAACGUCCUCAACCUCCAAUGCAUCCCACCACAUGAUGAUGCCUGAAGAGCCUUGGUUUUUUG

Variants of: B1
Assay: polymerase ribozyme fitness, log enrichment relative to wild type (log ratio); higher = more active; in vitro selection for triplet polymerase activity
Procedure, shortened: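 To select mutant libraries of each subunit of a heterodimeric triplet polymerase ribozyme, built by PCR and transcribed, each was annealed with a biotinylated primer, partner subunit and triplets, then incubated frozen at −7 °C. Extended constructs were gel-excised, captured on streptavidin beads and amplified by RT-PCR, in one round carried out in triplicate. Illumina sequencing of input and output libraries kept genotypes with ≥10 input reads and ≥1 read per output. Fitness is the base-2 logarithm of genotype enrichment relative to wild-type enrichment, from inverse-variance-weighted replicate averages.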

Row | Variant | polymerase ribozyme fitness (log ratio)
1 | C13U G63U C86A U112A | -1.22
2 | C13U G44C A74C A111C | -0.273
3 | C13U G47A U78C G120A C123U U125A G128A | -0.365
4 | C13U G127C | -1.18
5 | U14A G25U C34U G52U C56A A90G G93C C114G A121C G135A | -6.59
6 | C13U G71A U78G U87A U131A | -1.51
7 | U14A G36U A46C A91U C114G A121U G122A | -5.85
8 | U14A A83U C86A U112A U131A | -2.42
9 | C13U G61U | 0.429
10 | C13U G63C U92A | -3.34
11 | C13U G42U G44C C88A | -1.42
12 | C13U U92G | -2.48
13 | C13U G71U C79G U81A | -3.02
14 | U14A A66U C98U | -4.97
15 | C13U G39C C88U C102U C104A G113A | -2.3
16 | C13U G57A C79A | -1.12
17 | C13U U54A G61A | -0.0236
18 | C13U G120C C124U | 1.91
19 | U14A A29U | -3.64
20 | U14A C70U | -1.67
21 | C13U G51C | -2.27
22 | C13U G51U | -2.84
23 | C13U G51U G60U C97U A119G G127U | -2.62
24 | U14A G57C G58A G61A A105C U109G | -6.86

Row | Variant | polymerase ribozyme fitness (log ratio)
25 | C13U G128A | -1.67
26 | C13U U30C A46U | -5.06
27 | U14A A16U A50U C72A U81C | -5.83
28 | U14A C70U U126C G135U | -3.92
29 | C13U G36U U92A | -4.57
30 | C13U U21C A27U A37U A50G C56A G69U A111C | -4.81
31 | C13U U14G A68G | -5.25
32 | U14A C49U G60C A103C U112A C123G | -6.39
33 | C13U G39A A103U C123U | -4.74
34 | C13U G63A G77A C89U A90U G113A G122A U125A G127C | -5.73
35 | C13U G39C C72U U106G | -2.03
36 | U14A C15U C88U U96C G120U | -1.94
37 | U14A G71A | -2.77
38 | C13U U106A | -0.0681
39 | C13U G47C | -1.18
40 | C13U U78C C80U | -0.408
41 | U14A G36U A37U | -3.4
42 | C13U U21C G36C A50G C56A | -1.18
43 | U14A G36C G47A | -4.55
44 | C13U G51U U116C | -3.09
45 | C13U G39A A91G C123A | 0.557
46 | C13U G51A C56G C72A U78G C89U | -0.967
47 | C13U G45A G60C | -0.761
48 | C13U G113U U125C | -1.89

Row | Variant | polymerase ribozyme fitness (log ratio)
49 | C13U G39U A41G C72U U96G G117A | -3.31
50 | C13U G60A G69A U112G | -5.04
51 | C13U G71A C79U C123U | 1.62
52 | C13U U116C | 1.02
53 | C13U G52U C85U | -2.32
54 | C13U G63A U96A | -1.68
55 | U14A G61A A90C A91C | -4.3
56 | C13U G51U G52U C82A | -5.14
57 | C13U G48A G122U | 0.102
58 | U14A G60C C97G C123A | -5.56
59 | U14A C49U G71A | -3.73
60 | C13U G60C G93A G110A U130A | -3.35
61 | C13U G36U U133A | -1.43
62 | C13U G117C | -2.68
63 | U14A C40U G44C C49A | -3.39
64 | C13U G69U C124U G135C | 2.21
65 | C13U G93U | -0.472
66 | C13U G93A | -0.513
67 | C13U G47A C82G C123G U125A | -1.19
68 | C13U U14C A50U G120A | -0.904
69 | C13U U32G G35A G51A C114A G122C | -6.85
70 | C13U G52C G60A A95G C98U U126G | -4.8
71 | C13U G57A G110U | -1.9
72 | U14A A37C A43U A90U U130G | -2.85

Row | Variant | polymerase ribozyme fitness (log ratio)
73 | U14A C15A A41U G44A C82A U92G C123A | -5.11
74 | C13U U109G | -4.64
75 | C13U U109C | -2.24
76 | C13U U109A | -5.03
77 | U14A G63C A83U C86A U112A U131A | -2.09
78 | C13U G63C C76A U78A | -6.73
79 | C13U G63A | -0.373
80 | U14A A90G | -2.78
81 | U14A C40A A50G A74G G117U | -5.9
82 | U14A G44C G58U | -2.72
83 | C13U G39A | -0.593
84 | C13U G71U U116G | -1.86
85 | C13U U54A | 1.21
86 | C13U U33C A50G A84C C124G | -5.51
87 | C13U G71C A95C | -1.52
88 | U14A G63U C79U | -3.41
89 | C13U G47A C82G | -2.07
90 | U14A C22A G61C G65A C101U G120C | -7.89
91 | U14A A37U A84G | -2.93
92 | U14A A121U | 1.98
93 | C13U G63U C70G C114A G120C | -0.574
94 | U14A C15A C20U U55G | -3.71
95 | C13U G48U G110C | -4.34
96 | U14A C88G C99U C123U U131G U134A | -3.82

Row | Variant | polymerase ribozyme fitness (log ratio)
97 | U14A A46C U81C C82U | -3.9
98 | C13U U55G A95U A111C A121U G127C | -0.336
99 | U14A G47A C102A A121C | -2.83
100 | U14A C70G U126C G135U | -4.99
101 | C13U G120U | 0.513
102 | U14A A37G G120A | -0.881
103 | C13U U21C A27C U87G C114G | -6.59
104 | U14A C62G C89U C123A | -3.6
105 | U14A C124A | -0.31
106 | C13U G60A C114A U130C | -0.229
107 | U14A C94G | -3.05
108 | C13U G47U C88U A90G U106G | -2.13
109 | C13U G42U C104U | -0.915
110 | C13U U78A C79A U129G | -3.68
111 | U14A A50C C80G G120U | -5.23
112 | C13U G45A C79G | -1.83
113 | C13U G77A | 0.00416
114 | U14A G42C G110C | -5.7
115 | C13U U55G C72G A100C A111U | -4.67
116 | C13U G42U A90U A95U | -1.89
117 | C13U G42U G71U U87A G120C | -1.77
118 | C13U G42U C56U C114G C123A | -1.36
119 | U14A G48A C53G C64U | -2.48
120 | C13U G110C | -3.69

Row | Variant | polymerase ribozyme fitness (log ratio)
121 | C13U G63A C101U | -0.511
122 | C13U G60C G61A G117A | -2.25
123 | C13U G61U U129A G135U | -0.936
124 | C13U U21C | 0.405
125 | C13U U21G | 0.0383
126 | U14A A111C C115A | -5.18
127 | C13U U130A U133A | -1.2
128 | U14A G47C | -2.72
129 | U14A G47U | -3.55
130 | C13U G42U G48A | -1.13
131 | U14A G57C G58A G61A C89U G127U U129C U130C | -6.54
132 | C13U G45U G52A A83C A103U C114U G127A | -5.65
133 | C13U U78C U92G U106A | -2.62
134 | U14A A74G G77C G120C | -0.447
135 | U14A C72U C85A G93A | -3.6
136 | C13U G45A A84U U87A | -1.98
137 | C13U G69A | -2.03
138 | C13U U14A C15G G63A U81G U109A | -7.58
139 | C13U G36C A74C | 0.0868
140 | U14A A46U G61A A84U C85U | -4.32
141 | U14A A37U G52A U59C G71A | -3.95
142 | C13U U32G | -5.28
143 | C13U G57C U78C | 0.238
144 | C13U U112C G135U | 1.11

Row | Variant | polymerase ribozyme fitness (log ratio)
145 | C13U G113C | -1.31
146 | C13U G47U G117U | -2.08
147 | U14A A91C C115G U133A | -4.89
148 | C13U G51A C56G U78G C89U | -0.499
149 | C13U U33A U125A | -4.68
150 | U14A A105G | -5.21
151 | C13U G39C G58A A118U G120U | 0.174
152 | C13U U112A U126G | 0.677
153 | C13U G61C C101A | -2.82
154 | C13U G39U G44U A68G | -5.44
155 | C13U G48U G63C G110C | -4.51
156 | U14A A18U G60C | -4.66
157 | C13U G71U | -0.508
158 | C13U G57A G69A G110U | -6.08
159 | C13U U112A | 1.43
160 | C13U U112G | 1.14
161 | C13U G42C | -0.781
162 | U14A A74G | -2.63
163 | U14A C124A U130A | 0.939
164 | U14A C85U | -2.79
165 | U14A G63U G113A | -5.73
166 | C13U G69A C82U | -2.59
167 | U14A G51U C124U G135A | -3.03

Source: the RNAGym collection of RNA variant scans (doi:10.1073/pnas.2313332121)
